Consider one molecule from patent publication WO2016170039A1 (dated 2016).

For this experiment, the target named is T1, human angiopoietin 2 (human, UniProt O15123 19-496, limits assumed).
T1 construct: Bought (R&D Systems Cat.No. 623-AN) or produced in house; also called ANG-2; human ANG-2
T1 sequence: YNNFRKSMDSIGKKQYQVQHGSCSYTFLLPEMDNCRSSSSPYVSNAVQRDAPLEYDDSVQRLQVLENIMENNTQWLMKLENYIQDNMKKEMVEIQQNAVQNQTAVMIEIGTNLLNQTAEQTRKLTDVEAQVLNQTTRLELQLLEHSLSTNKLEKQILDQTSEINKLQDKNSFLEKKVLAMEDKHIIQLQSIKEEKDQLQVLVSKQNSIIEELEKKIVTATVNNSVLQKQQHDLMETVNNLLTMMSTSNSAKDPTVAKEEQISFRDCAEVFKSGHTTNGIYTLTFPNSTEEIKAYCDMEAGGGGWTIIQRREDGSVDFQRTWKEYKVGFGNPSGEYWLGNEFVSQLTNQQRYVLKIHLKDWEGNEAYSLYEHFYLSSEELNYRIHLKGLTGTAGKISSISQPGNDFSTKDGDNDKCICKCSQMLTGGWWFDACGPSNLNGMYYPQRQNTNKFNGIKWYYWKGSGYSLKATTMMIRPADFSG
Briefly: ANG-2/Tie2 receptor interaction ELISA; antibody pre-incubated with ANG-2; the IC50 (Table 2) is not given. In general terms: An ELISA detects its analyte on a solid surface through an enzyme-linked reagent.

B1: <ANG-2> LC06 (antibody, IgG1, V domains shown)
VH: not shown
VL: QPGLTQPPSVSVAPGQTARITCGGNNIGSKSVHWYQQKPGQAPVLVVYDDSDRPSGIPERFSGSNSGNTATLTISRVEAGDEADYYCQVWDSSSDHYVFGTGTKVTVLG
Take B1: the binding result is given as “binds”.
